Laboratory results from patent publication US20230143604A1, “QW DOSING OF GIP RECEPTOR AGONIST PEPTIDE COMPOUNDS AND USES THEREOF” (TAKEDA PHARMACEUTICAL COMPANY LIMITED, priority 2020, published 2023).
Starred links: 1 amine or outer side, 2 acyl side, 3 side chain; linkers in the order of their positions; H or OH if unused. Non-standard residues stand in square brackets, D forms with d. Groups on a side chain read outwards from the residue. No end group written: not given here. *: point of attachment. C18 diacid = O=C(O)CCCCCCCCCCCCCCCCC(=O)*; C17 diacid = O=C(O)CCCCCCCCCCCCCCCC(=O)*; γGlu = O=C(O)[C@H](CCC(=O)[*:2])N[*:1]; NMeY = CN[C@@H](Cc1ccc(O)cc1)C(=O)O; AEEA = NCCOCCOCC(=O)O; E1 = not defined here; K1 = not defined here; Aib = CC(C)(N)C(=O)O

Tests used:
[1] = biological target: T1, full-length human GIPR with an N-terminal FLAG tag (human, UniProt P48546 22-466); assay: cell-based or functional assay
T1 sequence (looked up): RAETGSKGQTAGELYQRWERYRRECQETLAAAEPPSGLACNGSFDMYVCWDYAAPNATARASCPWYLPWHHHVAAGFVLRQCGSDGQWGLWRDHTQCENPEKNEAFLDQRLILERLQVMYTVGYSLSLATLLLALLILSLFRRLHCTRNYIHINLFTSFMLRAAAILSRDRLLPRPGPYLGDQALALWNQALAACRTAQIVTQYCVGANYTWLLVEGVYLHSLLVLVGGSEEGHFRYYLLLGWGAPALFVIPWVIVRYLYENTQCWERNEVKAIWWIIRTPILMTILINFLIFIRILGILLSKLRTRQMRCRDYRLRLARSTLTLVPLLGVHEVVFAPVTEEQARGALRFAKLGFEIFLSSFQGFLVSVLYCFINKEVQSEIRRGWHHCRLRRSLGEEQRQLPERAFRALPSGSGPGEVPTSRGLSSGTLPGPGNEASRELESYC

[2] = biological target: full-length human GLP-1R with an N-terminal FLAG tag (human, UniProt P43220 24-463); assay: cell-based or functional assay

Binder | Human GIPR cAMP EC50, HEK293T [1] [nM] | Human GLP1R cAMP EC50, HEK293T [2] [nM]
YXEGTFISDYSIAXDRXAQXDFVEWLLAQSPG (N-methyl Tyr 1; Aib at 2,17,20; Lys(G5-C18 diacid) at 14; C-terminal OH) [Compound No. 118] | 0.0007 | 91.2
YXEGTFISDYSIAXDRXAQRDFVEWLLAQSPG (N-methyl Tyr 1; Aib at 2,17; Lys(G5-C18 diacid) at 14; C-terminal OH) [Compound No. 120] | 0.0003 | 15.8
YXEGTFISDYSIAXDRXAQKDFVEWLLAQSPG (N-methyl Tyr 1; Aib at 2,17; Lys(G5-C18 diacid) at 14; 'K1' at 20 and 'E1' at 24 as printed; C-terminal OH) [Compound No. 124] | 0.0003 | 123
YXEGTFISDYSIAXDRXAQXDFVNWLLAQSPG (N-terminus H; Aib at 2,17,20; Lys(G5-C18 diacid) at 14; C-terminal OH) [Compound No. 128] | 0.0009 | 7.24
[NMeY][Aib]EGTFISDYSI[Aib]LDR[Aib]AQ[Aib]K([AEEA-AEEA-γGlu-γGlu-C17 diacid])FVNWLLAQSPG-OH (N-terminus assumed; SMILES CC[C@H](C)[C@H](NC(=O)[C@H](Cc1ccccc1)NC(=O)[C@@H](NC(=O)CNC(=O)[C@H](CCC(=O)O)NC(=O)C(C)(C)NC(=O)[C@H](Cc1ccc(O)cc1)NC)[C@@H](C)O)C(=O)N[C@@H](CO)C(=O)N[C@@H](CC(=O)O)C(=O)N[C@@H](Cc1ccc(O)cc1)C(=O)N[C@@H](CO)C(=O)N[C@H](C(=O)NC(C)(C)C(=O)N[C@@H](CC(C)C)C(=O)N[C@@H](CC(=O)O)C(=O)N[C@@H](CCCNC(=N)N)C(=O)NC(C)(C)C(=O)N[C@@H](C)C(=O)N[C@@H](CCC(N)=O)C(=O)NC(C)(C)C(=O)N[C@@H](CCCCNC(=O)COCCOCCNC(=O)COCCOCCNC(=O)CC[C@H](NC(=O)CC[C@H](NC(=O)CCCCCCCCCCCCCCCC(=O)O)C(=O)O)C(=O)O)C(=O)N[C@@H](Cc1ccccc1)C(=O)N[C@H](C(=O)N[C@@H](CC(N)=O)C(=O)N[C@@H](Cc1c[nH]c2ccccc12)C(=O)N[C@@H](CC(C)C)C(=O)N[C@@H](CC(C)C)C(=O)N[C@@H](C)C(=O)N[C@@H](CCC(N)=O)C(=O)N[C@@H](CO)C(=O)N1CCC[C@H]1C(=O)NCC(=O)O)C(C)C)[C@@H](C)CC) [Compound No. 126] | 0.0004 | 30.9
YXEGTFISDYSIAXDRXAQKDFVEWLLAQRG (N-methyl Tyr 1; Aib at 2,17; Lys(G5-C18 diacid) at 14; 'K1' at 20 and 'E1' at 24 as printed; C-terminal OH) [Compound No. 121] | 0.0005 | 89.1
[NMeY][Aib]EGTFISDYSIALDR[Aib]AQ[Aib]K([GGPAPAPgE-C18 diacid])FVNWLLAQSPG-OH [Compound No. 117] | 0.002 | 44.7
[NMeY][Aib]EGTFISDYSIALDR[Aib]AQ[Aib]K([AEEA-AEEA-γGlu-γGlu-C18 diacid])FVEWLLAQSPG-OH (N-terminus assumed; SMILES CC[C@H](C)[C@H](NC(=O)[C@H](CO)NC(=O)[C@H](Cc1ccc(O)cc1)NC(=O)[C@H](CC(=O)O)NC(=O)[C@H](CO)NC(=O)[C@@H](NC(=O)[C@H](Cc1ccccc1)NC(=O)[C@@H](NC(=O)CNC(=O)[C@H](CCC(=O)O)NC(=O)C(C)(C)NC(=O)[C@H](Cc1ccc(O)cc1)NC)[C@@H](C)O)[C@@H](C)CC)C(=O)N[C@@H](C)C(=O)N[C@@H](CC(C)C)C(=O)N[C@@H](CC(=O)O)C(=O)N[C@@H](CCCNC(=N)N)C(=O)NC(C)(C)C(=O)N[C@@H](C)C(=O)N[C@@H](CCC(N)=O)C(=O)NC(C)(C)C(=O)N[C@@H](CCCCNC(=O)COCCOCCNC(=O)COCCOCCNC(=O)CC[C@H](NC(=O)CC[C@H](NC(=O)CCCCCCCCCCCCCCCCC(=O)O)C(=O)O)C(=O)O)C(=O)N[C@@H](Cc1ccccc1)C(=O)N[C@H](C(=O)N[C@@H](CCC(=O)O)C(=O)N[C@@H](Cc1c[nH]c2ccccc12)C(=O)N[C@@H](CC(C)C)C(=O)N[C@@H](CC(C)C)C(=O)N[C@@H](C)C(=O)N[C@@H](CCC(N)=O)C(=O)N[C@@H](CO)C(=O)N1CCC[C@H]1C(=O)NCC(=O)O)C(C)C) [Compound No. 119] | 0.0009 | 50.1
H-Y[Aib]EGTFISDYSI[Aib]LDKIAQQK([AEEA-AEEA-γGlu-γGlu-C17 diacid])FVEWLLAQRG-OH (SMILES CC[C@H](C)[C@H](NC(=O)[C@H](CCCCN)NC(=O)[C@H](CC(=O)O)NC(=O)[C@H](CC(C)C)NC(=O)C(C)(C)NC(=O)[C@@H](NC(=O)[C@H](CO)NC(=O)[C@H](Cc1ccc(O)cc1)NC(=O)[C@H](CC(=O)O)NC(=O)[C@H](CO)NC(=O)[C@@H](NC(=O)[C@H](Cc1ccccc1)NC(=O)[C@@H](NC(=O)CNC(=O)[C@H](CCC(=O)O)NC(=O)C(C)(C)NC(=O)[C@@H](N)Cc1ccc(O)cc1)[C@@H](C)O)[C@@H](C)CC)[C@@H](C)CC)C(=O)N[C@@H](C)C(=O)N[C@@H](CCC(N)=O)C(=O)N[C@@H](CCC(N)=O)C(=O)N[C@@H](CCCCNC(=O)COCCOCCNC(=O)COCCOCCNC(=O)CC[C@H](NC(=O)CC[C@H](NC(=O)CCCCCCCCCCCCCCCC(=O)O)C(=O)O)C(=O)O)C(=O)N[C@@H](Cc1ccccc1)C(=O)N[C@H](C(=O)N[C@@H](CCC(=O)O)C(=O)N[C@@H](Cc1c[nH]c2ccccc12)C(=O)N[C@@H](CC(C)C)C(=O)N[C@@H](CC(C)C)C(=O)N[C@@H](C)C(=O)N[C@@H](CCC(N)=O)C(=O)N[C@@H](CCCNC(=N)N)C(=O)NCC(=O)O)C(C)C) [Compound No. 129] | 0.0004 | 115
[NMeY][Aib]EGTFISDYSI[K1]LDR[E1]AQ[Aib]K([AEEA-AEEA-γGlu-γGlu-C18 diacid])FVNWLLAQRG-OH (reading uncertain; also: 'K1' at 13 and 'E1' at 17, not explained) [Compound No. 122] | 0.0008 | 3.55
[NMeY][Aib]EGTFISDYSI[Aib]LDR[Aib]AQ[Aib]K([AEEA-AEEA-γGlu-γGlu-C17 diacid])FVNWLLAQRG-OH (N-terminus assumed; SMILES CC[C@H](C)[C@H](NC(=O)[C@H](Cc1ccccc1)NC(=O)[C@@H](NC(=O)CNC(=O)[C@H](CCC(=O)O)NC(=O)C(C)(C)NC(=O)[C@H](Cc1ccc(O)cc1)NC)[C@@H](C)O)C(=O)N[C@@H](CO)C(=O)N[C@@H](CC(=O)O)C(=O)N[C@@H](Cc1ccc(O)cc1)C(=O)N[C@@H](CO)C(=O)N[C@H](C(=O)NC(C)(C)C(=O)N[C@@H](CC(C)C)C(=O)N[C@@H](CC(=O)O)C(=O)N[C@@H](CCCNC(=N)N)C(=O)NC(C)(C)C(=O)N[C@@H](C)C(=O)N[C@@H](CCC(N)=O)C(=O)NC(C)(C)C(=O)N[C@@H](CCCCNC(=O)COCCOCCNC(=O)COCCOCCNC(=O)CC[C@H](NC(=O)CC[C@H](NC(=O)CCCCCCCCCCCCCCCC(=O)O)C(=O)O)C(=O)O)C(=O)N[C@@H](Cc1ccccc1)C(=O)N[C@H](C(=O)N[C@@H](CC(N)=O)C(=O)N[C@@H](Cc1c[nH]c2ccccc12)C(=O)N[C@@H](CC(C)C)C(=O)N[C@@H](CC(C)C)C(=O)N[C@@H](C)C(=O)N[C@@H](CCC(N)=O)C(=O)N[C@@H](CCCNC(=N)N)C(=O)NCC(=O)O)C(C)C)[C@@H](C)CC) [Compound No. 127] | 0.0007 | 63.1
[NMeY][Aib]EGTFISDYSIALDR[Aib]AQ[Aib]K([AEEA-AEEA-γGlu-γGlu-C17 diacid])FVNWLLAQSPG-OH (N-terminus assumed; SMILES CC[C@H](C)[C@H](NC(=O)[C@H](CO)NC(=O)[C@H](Cc1ccc(O)cc1)NC(=O)[C@H](CC(=O)O)NC(=O)[C@H](CO)NC(=O)[C@@H](NC(=O)[C@H](Cc1ccccc1)NC(=O)[C@@H](NC(=O)CNC(=O)[C@H](CCC(=O)O)NC(=O)C(C)(C)NC(=O)[C@H](Cc1ccc(O)cc1)NC)[C@@H](C)O)[C@@H](C)CC)C(=O)N[C@@H](C)C(=O)N[C@@H](CC(C)C)C(=O)N[C@@H](CC(=O)O)C(=O)N[C@@H](CCCNC(=N)N)C(=O)NC(C)(C)C(=O)N[C@@H](C)C(=O)N[C@@H](CCC(N)=O)C(=O)NC(C)(C)C(=O)N[C@@H](CCCCNC(=O)COCCOCCNC(=O)COCCOCCNC(=O)CC[C@H](NC(=O)CC[C@H](NC(=O)CCCCCCCCCCCCCCCC(=O)O)C(=O)O)C(=O)O)C(=O)N[C@@H](Cc1ccccc1)C(=O)N[C@H](C(=O)N[C@@H](CC(N)=O)C(=O)N[C@@H](Cc1c[nH]c2ccccc12)C(=O)N[C@@H](CC(C)C)C(=O)N[C@@H](CC(C)C)C(=O)N[C@@H](C)C(=O)N[C@@H](CCC(N)=O)C(=O)N[C@@H](CO)C(=O)N1CCC[C@H]1C(=O)NCC(=O)O)C(C)C) [Compound No. 125] | 0.0005 | 20
[NMeY][Aib]EGTFISDYSIA[K1]DRA[E1]Q[Aib]K([AEEA-AEEA-γGlu-γGlu-C18 diacid])FVNWLLAQRG-OH (reading uncertain; also: 'K1' at 14 and 'E1' at 18, not explained) [Compound No. 123] | 0.0005 | 74.1
